This is an account of results in patent publication USRE48805 (VISION GLOBAL, dated 2021).

For this experiment, the target named is human serum albumin (HSA) (human, UniProt P02768 25-609). As to the kind of experiment: native polyacrylamide gel (10%) shift after 60 min incubation at room temperature at the stated HSA:AAD molar ratios.
Chain of human serum albumin (HSA) (P02768 25-609 limits assumed): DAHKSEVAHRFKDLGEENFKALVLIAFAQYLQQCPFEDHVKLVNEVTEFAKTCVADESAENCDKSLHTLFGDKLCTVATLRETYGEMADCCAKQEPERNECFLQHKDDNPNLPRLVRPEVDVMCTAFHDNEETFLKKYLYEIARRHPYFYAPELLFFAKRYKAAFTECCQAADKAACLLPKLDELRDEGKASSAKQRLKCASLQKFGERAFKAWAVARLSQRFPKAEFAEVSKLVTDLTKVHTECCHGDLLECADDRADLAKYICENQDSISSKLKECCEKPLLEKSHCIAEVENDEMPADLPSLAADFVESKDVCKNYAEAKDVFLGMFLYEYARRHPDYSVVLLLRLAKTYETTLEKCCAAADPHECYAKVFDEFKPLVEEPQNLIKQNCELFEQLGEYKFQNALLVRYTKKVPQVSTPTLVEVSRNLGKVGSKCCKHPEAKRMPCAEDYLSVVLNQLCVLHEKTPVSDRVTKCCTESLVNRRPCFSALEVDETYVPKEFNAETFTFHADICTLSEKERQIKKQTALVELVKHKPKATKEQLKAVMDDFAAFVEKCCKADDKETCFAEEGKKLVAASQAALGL

B1: albumin-binding arginine deiminase (AAD) fusion protein His-ABD-PolyN-ADI (enzyme)
chain: MHHHHHHDEAVDANSLAEAKVLANRELDKYGVSDYYKNLINNAKTVEGVKALIDEILAALPSGSNNNNNNGSGGSVFDSKFKGIHVYSEIGELESVLVHEPGREIDYITPARLDELLFSAILESHDARKEHKQFVAELKANDINVVELIDLVAETYDLASQEAKDKLIEEFLEDSEPVLSEEHKVVVRNFLKAKKTSRELVEIMMAGITKYDLGIEADHELIVDPMPNLYFTRDPFASVGNGVTIHYMRYKVRQRETLFSRFVFSNHPKLINTPWYYDPSLKLSIEGGDVFIYNNDTLVVGVSERTDLQTVTLLAKNIVANKECEFKRIVAINVPKWTNLMHLDTWLTMLDKDKFLYSPIANDVFKFWDYDLVNGGAEPQPVENGLPLEGLLQSIINKKPVLIPIAGEGASQMEIERETHFDGTNYLAIRPGVVIGYSRNEKTNAALEAAGIKVLPFHGNQLSLGMGNARCMSMPLSRKDVKW
As for B1, the binding result was “binds”.
